Measured values reported in the DeepSol protein solubility set.

test: soluble on expression in E. coli; label from the status in PepcDB or PDB records

Sequence	soluble on expression in E. coli
MSLKQTNPFVYSNDNKRYHTWNYCLREEFGQKTYKVALDGGFDCPNRDGTVAHGGCTFCSAAGSGDFAGNRALDLKIQFQQVRDKMQTKWKDGKCIAYFQAFTNTHAPVAELREKFETVLNEPGVVGLSIATRPDCLPDDVVEYLAELNERTYLWLELGLQSAHDETGRLINRAHDYDCYVEGVRKLQKHNIRICTHIINGLPKETPEMMMETTRKVVESGVDGIKIHLLHLLKGTPMVEDYKKGDLEFLTRDGYVNLVADQLEILPPEMVIHRITGDGGVDDLIGPVWSLNKFEVLNAIDAELVRRDSWQGKLYQPVEVNAKEGHHHHHH	soluble
MGHHHHHHSHAWSGVLEWQEKPKPASVDANTKLTRSLPCQVYVNHGENLKTEQWPQKLIMQLIPQQLLTTLGPLFRNSRMVQFHFTNKDLESLKGLYRIMGNGFAGCVHFPHTAPCEVRVLMLLYSSKKKIFMGLIPYDQSGFVNGIRQVITNHKQVQQQKLEQQQRGMGGQQAPPGLGPILEDQAR	soluble
MSLGATNRLACYSDPADHYSHRVRLVLAEKGVSVQLIDVDPAHLPRKLAEVNPYGSVPTLVDRDLALYESTVVMEYLEERYPHPPLMPVYPVARGNSRLLMHRIQRDWCALADTVLDPRSSEAARTEARKALRESLTGVSPLFSEFACFMSDEQSLVDCCLLPILWRLPVLGIELPRQAKPLLDYMERQFAREPFQASLSSVEREMRKLEGHHHHHH	soluble
MNIAVSKPPLTIRLCGPRGFCAGVDRAIQIVVLALKAYGAPVYVRHEIVHNRYVVEGLEAKGAIFVEELHEIPAEHREQPVVFSAHGVPKSVPEDAQARNLFYLDATCPLVSKVHKQAMRHQRLGRHVVLIGHAGHPEVIGTMGQLPEGTVSLVETVEDAGVYEPVDRENLGFVTQTTLSVDDTAGVIARLQERFPAIQAPAADSICYATTNRQDAVKQAAPGCDLFIVVGAPNSSNSKRLVEVALRAGAKHSVLVQRASEIDWNEIGDIRTVGLSAGASAPEVIVDEIIEAFKARFDTTLDLAVTVEETEHFLVNRELRSIELTTDDMAFVNGNASNALPPKATAGILEHHHHHH	not soluble
MPKKNNTKRAPPSVPKPSGPPPRLLQLTSSDGHLLQGDIRALLLSSTLAATIRELGYDKEYCAELKPVPVNNVVGFTLKLLIEWCDKHKEDDPAIALAEKDKKNICIPSWDRHFLSRLPMSNLFDLITAAYHLDVTGLINYGCKTVANSAKGKNAEEMRELFGIPEPWEQPSTSTATWDD	not soluble
MGSDKIHHHHHHMAEKTIVEKLQLTKYKEAVILNQPNGADYFQNLANYEEKLADKQYDLIFDFVETLEELITFVQKVIAENKLAANGYLFFAYPKKGNKKFATYVHRDELMPALKTDEEGYVDGSTLKFTRMVALDETYTVVGLKEAAKLKAKGVKKNNPSADEYADHVPLVAEFLADKGDLQAFYNNLATGYQRVWARYIYSAKQPATQEKRRLEMVDILSQGYKTKDLYRQGKK	not soluble
MAHHHHHHMDTRMKDLSFKVVLLGEGRVGKTSLISRYVHNAFDEKEASTVQASMHSSKAVPINDASSAPGAIREVDLALWDTAGQERFHALAPMYYRNADGAIIVYDVTDADTLRKVRTWAKELYAVVGEGKIQLVLCGNKADTPLAEREVSEGEGAAMAAELGASHFFASAKTGQNVAEVFSAMATQVARSREVTGMGGGVAAGGSSGSSGGGAYTGISGRTPSRSRARRGLMVVTEDGEAVTPGRSSPCEGRVYGGITPPRAHRYGSSGTNQPITLSADGSPDAAAAANKSGCC	soluble
GPGSMPPPAPPALEKKTAAGVEVDLTKMVLDTSSFLRASAQRPSMRYPSRASVSNSAFISAQEYDDLRARYSQAKRELLKVSDIQKDLDFARFELTRSQEEMKLLRASNHNLKNEVEEYVQRAEKEHKARMSLEAKMSAEGATRTEEIEFLKKTIDELRAENAKRLDYMTQQQEDEFQARLQSMREELAGAAEELARLTAEAAQAQKARELSESKLTAALTDLEKSRAVVDDCKARIDALQKECHALEQQHRDFVQQQERQNAAYLEEQKALNEERVHQVAESKNAAIAEMQEELHLWKEKTKTTAEELAAARHAASQLQDDVKQLTADRAKEVRRLAEEHRLALCELQLQMEAAIREARGSKTSLEEEAQSLRRQLAQVSTELSTVAGVLAQRERQLAKAEEELLRTKDRCVAAEQENAQLASDAQLNAEAADEAAARVERLMRQNSDMEEEFSKDLREAKDRIRTLEATLMQSKGELSALRKEQIKSADDGLAATRDLRAQAEALMEECTALKAQAGERRRLEEMARDYCQRFEAERTKVGTLEAELSAAVGRCTAVEAKLEELSRRVISQAVSRSPMQTLHPNATAASLSCHGKHRSVSSGQSYAPTGGSSMKRARTEDARVFAISGFDGNDVLLAVKQLPNVAIAECKSNMPVPSNLTHLITNGQLTIKLLTALVRGCWVLPESYVVDSLKEQTWLREEDYGFQHEEPPLLKKRIALTEAFMACKHYSTASLLLKEGGAILVDDPEQADILLCTNAEARSTQNGWNWEKMVEIIYPLKIQ	soluble
MKTIDCRNMACPAPVVTTKRALEEAGGETVRVLVDAGAPRENVARFAANRGFRVAVEEADGGFAITIGSGEGAPSAPAENPARQGRTVMLITSDRLGDGPEDLGRLLMKSFIITLLDQESLPDRMMFLNSGVLLTTEGSEVLQALEQLGNRGVEVLSCGVCLDFFHCKEKLAAGTVTNMFTTAEALLTAGSVIRLLEHHHHHH	soluble
MSLSMLPSFGFTQEQVACVCEVLQQGGNLERLGRFLWSLPACDHLHKNESVLKAKAVVAFHRGNFRELYKILESHQFSPHNHPKMQQLWLKAHYVEAEKLRGRPLGAVGKYRVRRKFPLPRTIWDGEETSYCFKEKSRGVLREWYAHNPYPSPREKRELAEATGMTTTQVSNWFKNRRQRDRAAEAKERENTENEGHHHHHH	not soluble
MKFLFYLSADNLEIARKEVLVLAERYGWVEDYQFEERLLLLDYAGEKFFERLAYTNEVTKIYDICSVSELEQVFSEIPVYDRLCCVRVKGGKGKTALERKLGALLWKRGAKVSVSNPEIVYKVYIQDDKCYVGLLEFERDTRQFFLRRPDRRPFLMPSAIKPKLARALVNLTGVLEGETLLDPMCGTGSFLIEAGLMGINPIGIDFIEKIVRGCRVNLEYYGIEGSVLLGDAKNLPLRDESVRGIATDYPYLRSTKAAGTLDELYSKTSEEFERVLKKGGRAAIVTNIDVESFFSNFEIEMKTEERVHGSLTRRIYLLRR	not soluble
SMANHLVKPDNRNCKRPRELESPVPDSPQLSSLGKSDSSFSEISGLFYKDEALEKDLNDVSKEINLMLSTYAKLLSERAAVDASYIDEIDELFKEANAIENFLIQKREFLRQRFTVIANTLHR	soluble
MAEGDLSFFVMLARRESFSATAQDLGLSASAVSRRLARLEDRLGVRLLNRTTRKVSLTSEGEAYYGAALRLLDEIADLEHNLSQGRDRPAGLLRINATLGFGRTHLAPAIARFRRIHPAVEVQLLLTDAPLNLVEEGIDLGIRFGAPPFGRMVMRLLQRNRRFLCAAPSYLEARGVPQSLTDLQQHSCIVLRQDHDAYDVWRFDDIGEASPSAKVSGELSTNDGEIALAWVLDGQGIMLRSEWDIAQHVREGRLRLLLPHYRQTANIHAIYPERHNLSAKVRVFADHLAAHVRDADARMPLQLAAAELRAATARA	not soluble
MLRLWEELNRVENLFLELLDDPKKKDVLLYLICYCQLVRRDGEYEVELPKLINCAEKPYKYISGNWQDVLLELGVLYLKDKKGKVYTGKEILLVKNPEGFKVGILPDYREDFYKFYTKLLKYWSVLNSRRTLGSNTTPDYYTPLLVHTFNEKLFKEAQYFSEILAMRFPKEKNLFLSVKLVSEFYREYAKTGRVKADNLNDAINFLSDTPDVFYSVNVKKFKKDIKKFLENLNKGEFYYITIEFASENRGKKRSILSKLWNFIKSLGGKRWNSRSSGMDYYSFIEHLLKKHRRQMMRSLESSTPRLQGT	not soluble
MSKGEKMKIKVGVLGATGSVGQRFVQLLADHPMFELTALAASERSAGKKYKDACYWFQDRDIPENIKDMVVIPTDPKHEEFEDVDIVFSALPSDLAKKFEPEFAKEGKLIFSNASAYRMEEDVPLVIPEVNADHLELIEIQREKRGWDGAIITNPNCSTICAVITLKPIMDKFGLEAVFIATMQAVSGAGYNGVPSMAILDNLIPFIKNEEEKMQTESLKLLGTLKDGKVELANFKISASCNRVAVIDGHTESIFVKTKEGAEPEEIKEVMDKFDPLKDLNLPTYAKPIVIREEIDRPQPRLDRNEGNGMSIVVGRIRKDPIFDVKYTALEHNTIRGAAGASVLNAEYFVKKYI	soluble
